Results reported in the supplement of paper PMC10598134.
± gives the standard deviation.

Assay: collision cross section of modified peptide (TIMS, N2, iRT-aligned); higher = larger / more extended gas-phase ion
Procedure: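 1/K0 was aligned run-wise to spiked iRT peptides and converted to CCS in N2 (Mason-Schamp). Values are the mean of 1-3 technical replicates for the most abundant feature at each charge state.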

[1] = charge state: 2, modification: Propionyl
[2] = charge state: 2, modification: hydroxyisobutyryl
[3] = charge state: 3, modification: hydroxyisobutyryl
[4] = charge state: 3, modification: HexNAc (ST)
[5] = charge state: 2, modification: Malonyl
[6] = charge state: 2, modification: Butyryl
[7] = charge state: 2, modification: Dimethyl (K)
[8] = charge state: 2, modification: Crotonyl
[9] = charge state: 3, modification: Crotonyl
[10] = charge state: 3, modification: Trimethyl (K)
[11] = charge state: 2, modification: Acetyl (K)
[12] = charge state: 3, modification: Acetyl (K)
[13] = charge state: 2, modification: Hydroxyproline
[14] = charge state: 2, modification: HexNAc (ST)
[15] = charge state: 3, modification: Dimethyl (K)
[16] = charge state: 2, modification: Biotin
[17] = charge state: 3, modification: Biotin
[18] = charge state: 2, modification: Phospho (Y)
[19] = charge state: 3, modification: Succinyl
[20] = charge state: 3, modification: Butyryl
[21] = charge state: 2, modification: Succinyl
[22] = charge state: 2, modification: Glutarylation
[23] = charge state: 3, modification: Glutarylation
[24] = charge state: 2, modification: Methyl (K)
[25] = charge state: 3, modification: Methyl (K)
[26] = charge state: 3, modification: Phospho (Y)

## VLTANSNPSSPSAAKR [_VLTANSNPSSPSAAK(Propionyl)R_]
[1]
  collision cross section: 429.75 ± 0.38 Å²
Charge state: 3, modification: Propionyl
  collision cross section: 528.16 ± 0.65 Å²

## ITLSKHQNVQLPR [_ITLSK(hydroxyisobutyryl)HQNVQLPR_]
[2]
  collision cross section: 443.83 ± 0.038 Å²
[3]
  collision cross section: 520.86 ± 27 Å²

## FSYTSQHSDYGQR [_FS(HexNAc (ST))YTSQHSDYGQR_]
[4]
  collision cross section: 502.75 ± 0.96 Å²

## DTGEKLTVAENEAETK [_DTGEK(Malonyl)LTVAENEAETK_]
[5]
  collision cross section: 444.04 ± 1.8 Å²

## DTPTSAGPNSFNKGK [_DTPTSAGPNSFNK(hydroxyisobutyryl)GK_]
[2]
  collision cross section: 416.06 ± 1.1 Å²
[3]
  collision cross section: 443.44 ± 3 Å²

## ALASIDSKLNQAK [_ALASIDSK(Butyryl)LNQAK_]
[6]
  collision cross section: 403.96 ± 0.85 Å²

## SGFGKFER [_SGFGK(Dimethyl (K))FER_]
[7]
  collision cross section: 334.57 ± 1.1 Å²

## SGFGKFER [_SGFGK(Propionyl)FER_]
[1]
  collision cross section: 336.62 ± 0.34 Å²

## DKALPLEAEVAPVK [_DK(Propionyl)ALPLEAEVAPVK_]
[1]
  collision cross section: 410.19 Å²

## VPTTEKPTVTVNFR [_VPTTEK(Crotonyl)PTVTVNFR_]
[8]
  collision cross section: 427.61 ± 0.55 Å²
[9]
  collision cross section: 510.39 Å²

## ITLSKHQNVQLPR [_ITLSK(Trimethyl (K))HQNVQLPR_]
[10]
  collision cross section: 492.22 ± 3.3 Å²

## STGLELETPSLVPVKK [_STGLELETPSLVPVK(Crotonyl)K_]
[8]
  collision cross section: 437.59 Å²
[9]
  collision cross section: 521.61 Å²

## VYIASSSGSTAIKK [_VYIASSSGSTAIK(Acetyl (K))K_]
[11]
  collision cross section: 414.5 ± 2.5 Å²
[12]
  collision cross section: 503.2 ± 1.2 Å²

## GPPGPPGR [_GPPGPP(Hydroxyproline)GR_]
[13]
  collision cross section: 291.03 ± 0.88 Å²

## PRGVISTPVIR [_PR(Methyl (R))GVISTPVIR_]
Charge state: 2, modification: Methyl (R)
  collision cross section: 373.92 Å²
Charge state: 3, modification: Methyl (R)
  collision cross section: 447.15 ± 2.7 Å²

## VPQAQPTKPALK [_VPQAQPT(HexNAc (ST))KPALK_]
[14]
  collision cross section: 409.35 ± 0.62 Å²
[4]
  collision cross section: 481.8 ± 0.17 Å²

## SGNLTEDDKHNNAK [_SGNLTEDDK(Dimethyl (K))HNNAK_]
[15]
  collision cross section: 479.84 ± 1.3 Å²

## GETASKLQSEISR [_GETASK(Biotin)LQSEISR_]
[16]
  collision cross section: 422.42 ± 2 Å²
[17]
  collision cross section: 475.24 ± 0.34 Å²

## LNAIYQNNLTK [_LNAIY(Phospho (Y))QNNLTK_]
[18]
  collision cross section: 390.25 ± 0.67 Å²

## SLKLNTAEDAK [_SLK(Propionyl)LNTAEDAK_]
[1]
  collision cross section: 376 ± 0.94 Å²

## VFIGNLNTLVVKK [_VFIGNLNTLVVK(Trimethyl (K))K_]
Charge state: 2, modification: Trimethyl (K)
  collision cross section: 435.19 ± 1 Å²
[10]
  collision cross section: 485.88 ± 1.8 Å²

## DSSPTTNSKLSALQR [_DSSPTTNSK(Malonyl)LSALQR_]
[5]
  collision cross section: 424.62 ± 0.65 Å²
Charge state: 3, modification: Malonyl
  collision cross section: 494.68 ± 0.88 Å²

## ITASLCDLKSR [_ITASLCDLK(Malonyl)SR_]
[5]
  collision cross section: 382.56 Å²

## LQEKVESAQSEQK [_LQEK(hydroxyisobutyryl)VESAQSEQK_]
[2]
  collision cross section: 422.92 ± 0.52 Å²
[3]
  collision cross section: 502.35 ± 2.1 Å²

## IHNAENIQPGEQKYEYK [_IHNAENIQPGEQK(Succinyl)YEYK_]
[19]
  collision cross section: 525.87 ± 2 Å²

## DSSPTTNSKLSALQR [_DSSPTTNSK(Butyryl)LSALQR_]
[6]
  collision cross section: 435.34 ± 0.76 Å²
[20]
  collision cross section: 499.02 ± 1.9 Å²

## GTISAPGKVVTAAAQAK [_GTISAPGK(Acetyl (K))VVTAAAQAK_]
[11]
  collision cross section: 440.91 ± 2.6 Å²
[12]
  collision cross section: 515.28 ± 2 Å²

## LQDVSGQLSSSKK [_LQDVSGQLSSSK(Biotin)K_]
[16]
  collision cross section: 425.22 ± 2.6 Å²
[17]
  collision cross section: 506.69 Å²

## SDDESSQKDIK [_SDDESSQK(Butyryl)DIK_]
[6]
  collision cross section: 378.95 ± 0.72 Å²

## TYVQDILR [_TY(Phospho (Y))VQDILR_]
[18]
  collision cross section: 359.66 ± 0.65 Å²

## DSSPTTNSKLSALQR [_DSSPTTNSK(Succinyl)LSALQR_]
[21]
  collision cross section: 428.81 ± 1.1 Å²
[19]
  collision cross section: 496.14 ± 4.3 Å²

## IGNSYFKEEK [_IGNSYFK(hydroxyisobutyryl)EEK_]
[2]
  collision cross section: 380.01 ± 0.8 Å²

## IQQELQTAKK [_IQQELQTAK(Butyryl)K_]
[6]
  collision cross section: 385.32 ± 2.2 Å²
[20]
  collision cross section: 441.3 Å²

## TGGTQTDLFTCGKCK [_TGGTQTDLFTCGK(Gluratylation)CK_]
[22]
  collision cross section: 442.58 Å²

## DASTLQSQKAEGTGDAK [_DASTLQSQK(Propionyl)AEGTGDAK_]
[1]
  collision cross section: 434.77 ± 2.9 Å²

## DFDTALKHYDK [_DFDTALK(Gluratylation)HYDK_]
[22]
  collision cross section: 406.02 ± 0.63 Å²
[23]
  collision cross section: 469.01 ± 1.7 Å²

## VGIDTPDIDIHGPEGKLK [_VGIDTPDIDIHGPEGK(hydroxyisobutyryl)LK_]
[2]
  collision cross section: 500.35 ± 0.99 Å²
[3]
  collision cross section: 542.95 ± 2 Å²

## GGPGSTLSFVGKR [_GGPGSTLSFVGK(Malonyl)R_]
[5]
  collision cross section: 380.38 ± 0.0061 Å²

## GLQGPPGK [_GLQGPP(Hydroxyproline)GK_]
[13]
  collision cross section: 294.56 ± 0.29 Å²

## YIDNQVVSTKGER [_YIDNQVVST(HexNAc (ST))KGER_]
[14]
  collision cross section: 428.63 ± 0.14 Å²
[4]
  collision cross section: 510.94 ± 0.18 Å²

## ANEKTESSSAQQVAVSR [_ANEK(Gluratylation)TESSSAQQVAVSR_]
[22]
  collision cross section: 449.31 ± 1.1 Å²
[23]
  collision cross section: 546.17 ± 2 Å²

## DESFLGKLGGTLAR [_DESFLGK(Gluratylation)LGGTLAR_]
[22]
  collision cross section: 418.47 ± 2.1 Å²
[23]
  collision cross section: 488.45 ± 2.4 Å²

## DKALPLEAEVAPVK [_DK(Methyl (K))ALPLEAEVAPVK_]
[24]
  collision cross section: 408.8 ± 1.9 Å²
[25]
  collision cross section: 507.57 ± 2 Å²

## FSAYIKNSNPALNDNLEK [_FSAYIK(Succinyl)NSNPALNDNLEK_]
[21]
  collision cross section: 492.09 ± 3.4 Å²
[19]
  collision cross section: 527.54 ± 2 Å²

## ASNAAVKLAESK [_ASNAAVK(Biotin)LAESK_]
[16]
  collision cross section: 402.96 ± 11 Å²
[17]
  collision cross section: 464.87 Å²

## PPGFSPFR [_PP(Hydroxyproline)GFSPFR_]
[13]
  collision cross section: 331.47 ± 1.3 Å²

## KYEEIDNAPEER [_K(Dimethyl (K))YEEIDNAPEER_]
[7]
  collision cross section: 402.53 ± 1.1 Å²
[15]
  collision cross section: 484.37 ± 1.6 Å²

## INNFSADIKDSK [_INNFSADIK(Dimethyl (K))DSK_]
[7]
  collision cross section: 406.51 ± 0.23 Å²
[15]
  collision cross section: 455.06 ± 5.9 Å²

## VNIGQGSHPQKVK [_VNIGQGSHPQK(Gluratylation)VK_]
[22]
  collision cross section: 424.75 ± 1.8 Å²
[23]
  collision cross section: 494.72 ± 8.3 Å²

## ASNAAVKLAESK [_ASNAAVK(Acetyl (K))LAESK_]
[11]
  collision cross section: 371.36 ± 0.81 Å²

## LDEKENLSAK [_LDEK(Acetyl (K))ENLSAK_]
[11]
  collision cross section: 366.13 ± 0.94 Å²

## YLHDESGLNR [_Y(Phospho (Y))LHDESGLNR_]
[18]
  collision cross section: 372.11 ± 0.77 Å²
[26]
  collision cross section: 460.83 ± 0.1 Å²

## YTQVGPDHNR [_Y(Phospho (Y))TQVGPDHNR_]
[18]
  collision cross section: 363.13 ± 0.064 Å²
[26]
  collision cross section: 430.78 Å²

## TQDQISNIKYHEEFEK [_TQDQISNIK(Succinyl)YHEEFEK_]
[19]
  collision cross section: 549.89 ± 1.1 Å²

## LEQVEKELLR [_LEQVEK(Methyl (K))ELLR_]
[24]
  collision cross section: 386.67 ± 0.96 Å²
[25]
  collision cross section: 448.53 ± 4.9 Å²
